Data: paper PMC9482650, “Quantitative fragmentomics allow affinity mapping of interactomes” (Nature Communications, 2022)

T1: SNTA1, Q13424
T1 sequence (Q13424 82-180, limits assumed, looked up): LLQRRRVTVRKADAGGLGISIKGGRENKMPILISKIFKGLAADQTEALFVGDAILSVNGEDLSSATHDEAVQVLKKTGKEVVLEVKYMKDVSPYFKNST

T2: LIN7B, Q9HAP6
T2 sequence (Q9HAP6 88-185, limits assumed, looked up): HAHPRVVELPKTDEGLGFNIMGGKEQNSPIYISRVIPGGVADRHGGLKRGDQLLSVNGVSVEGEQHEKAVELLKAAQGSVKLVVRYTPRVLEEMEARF

T3: APBA1_2, Q02410
T3 sequence (Q02410 742-832, limits assumed, looked up): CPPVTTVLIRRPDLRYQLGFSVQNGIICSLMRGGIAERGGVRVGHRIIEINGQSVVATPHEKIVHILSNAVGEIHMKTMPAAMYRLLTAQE

T4: RHPN1, Q8TCX5
T4 sequence (Q8TCX5 508-602, limits assumed, looked up): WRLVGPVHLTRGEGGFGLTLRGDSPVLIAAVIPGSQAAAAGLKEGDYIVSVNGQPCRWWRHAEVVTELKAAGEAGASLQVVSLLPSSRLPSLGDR

T5: NHERF3_3, Q5T2W1
T5 sequence (Q5T2W1 238-333, limits assumed, looked up): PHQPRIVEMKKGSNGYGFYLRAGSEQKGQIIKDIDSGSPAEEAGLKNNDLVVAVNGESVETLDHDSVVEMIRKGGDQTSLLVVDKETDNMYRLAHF

T6: LIN7C, Q9NUP9
T6 sequence (Q9NUP9 88-185, limits assumed, looked up): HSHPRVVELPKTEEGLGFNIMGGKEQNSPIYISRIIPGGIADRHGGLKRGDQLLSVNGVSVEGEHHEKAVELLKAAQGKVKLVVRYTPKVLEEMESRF

T7: DLG3_3, Q92796
T7 sequence (Q92796 374-475, limits assumed, looked up): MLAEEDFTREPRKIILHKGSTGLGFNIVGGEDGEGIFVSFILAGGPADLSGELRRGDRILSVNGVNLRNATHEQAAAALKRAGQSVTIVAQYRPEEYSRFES

T8: HTRA3, P83110
T8 sequence (P83110 354-453, limits assumed, looked up): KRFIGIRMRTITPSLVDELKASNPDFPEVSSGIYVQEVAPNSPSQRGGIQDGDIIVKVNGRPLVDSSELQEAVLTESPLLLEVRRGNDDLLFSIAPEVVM


Assays:
Assay in all cases: holdup assay
Set-up in all cases: key: below the threshold = too weak to quantify, mostly under pKd 3.1 to 4
Details in all cases: plain residues with an end cap or a label only (N-terminal biotin on a linker: ado-ado)
Inadl_4, Q8NI35 = biological target: Inadl_4, Q8NI35
Sequence of Inadl_4, Q8NI35 (Q8NI35 547-651): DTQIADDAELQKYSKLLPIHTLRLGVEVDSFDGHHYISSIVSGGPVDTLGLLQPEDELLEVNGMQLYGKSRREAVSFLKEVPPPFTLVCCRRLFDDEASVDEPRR

FRMPD2_1, Q68DX3 = biological target: FRMPD2_1, Q68DX3
Sequence of FRMPD2_1, Q68DX3 (Q68DX3 770-861): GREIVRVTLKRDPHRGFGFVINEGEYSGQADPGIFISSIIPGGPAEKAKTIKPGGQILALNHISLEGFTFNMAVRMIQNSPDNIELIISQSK

LNX1_2, Q8TBB1 = biological target: LNX1_2, Q8TBB1
Sequence of LNX1_2, Q8TBB1 (Q8TBB1 371-470): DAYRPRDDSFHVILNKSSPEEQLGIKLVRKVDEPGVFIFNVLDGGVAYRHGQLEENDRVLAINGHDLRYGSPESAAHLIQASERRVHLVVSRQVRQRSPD

NHERF4_4, Q86UT5 = biological target: NHERF4_4, Q86UT5
Sequence of NHERF4_4, Q86UT5 (Q86UT5 464-550): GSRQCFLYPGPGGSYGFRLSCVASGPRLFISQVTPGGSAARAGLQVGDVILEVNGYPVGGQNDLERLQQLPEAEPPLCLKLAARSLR

Inadl_8, Q8NI35 = biological target: Inadl_8, Q8NI35
Sequence of Inadl_8, Q8NI35 (Q8NI35 1425-1530): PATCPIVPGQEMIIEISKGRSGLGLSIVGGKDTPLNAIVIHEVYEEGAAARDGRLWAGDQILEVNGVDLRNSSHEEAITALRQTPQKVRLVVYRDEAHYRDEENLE

DLG4_3, P78352 = biological target: DLG4_3, P78352
Sequence of DLG4_3, P78352 (P78352 306-403): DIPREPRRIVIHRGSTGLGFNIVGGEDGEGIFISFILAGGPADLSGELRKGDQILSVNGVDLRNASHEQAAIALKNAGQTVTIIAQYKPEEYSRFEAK

DLG2_2, Q15700 = biological target: DLG2_2, Q15700
Sequence of DLG2_2, Q15700 (Q15700 189-283): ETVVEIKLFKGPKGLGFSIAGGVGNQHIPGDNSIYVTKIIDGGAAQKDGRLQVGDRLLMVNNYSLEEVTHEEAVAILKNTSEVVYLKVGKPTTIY

SNTA1, Q13424 = biological target: T1, SNTA1, Q13424
PARD3_3, Q8TEW0 = biological target: PARD3_3, Q8TEW0
Sequence of PARD3_3, Q8TEW0 (Q8TEW0 582-685): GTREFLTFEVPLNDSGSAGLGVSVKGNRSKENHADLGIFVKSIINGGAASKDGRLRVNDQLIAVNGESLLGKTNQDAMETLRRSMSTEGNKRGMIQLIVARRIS

LIN7B, Q9HAP6 = biological target: T2, LIN7B, Q9HAP6
APBA1_2, Q02410 = biological target: T3, APBA1_2, Q02410
MAST2, Q6P0Q8 = biological target: MAST2, Q6P0Q8
Sequence of MAST2, Q6P0Q8 (Q6P0Q8 1099-1202): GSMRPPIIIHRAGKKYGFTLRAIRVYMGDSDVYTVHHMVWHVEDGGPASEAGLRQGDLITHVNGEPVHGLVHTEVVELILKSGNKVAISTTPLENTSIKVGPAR

ARHGEF12, Q9NZN5-2 = biological target: ARHGEF12, Q9NZN5-2
Sequence of ARHGEF12, Q9NZN5-2 (Q9NZN5 other isoform, or with tags, fused parts or gaps): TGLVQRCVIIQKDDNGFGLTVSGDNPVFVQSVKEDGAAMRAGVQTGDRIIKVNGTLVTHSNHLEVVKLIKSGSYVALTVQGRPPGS

Inadl_10, Q8NI35 = biological target: Inadl_10, Q8NI35
Sequence of Inadl_10, Q8NI35 (Q8NI35 1673-1763): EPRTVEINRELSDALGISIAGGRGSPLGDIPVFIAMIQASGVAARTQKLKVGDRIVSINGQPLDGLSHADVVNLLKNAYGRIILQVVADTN

MAGI2_3, Q86UL8 = biological target: MAGI2_3, Q86UL8
Sequence of MAGI2_3, Q86UL8 (Q86UL8 600-682): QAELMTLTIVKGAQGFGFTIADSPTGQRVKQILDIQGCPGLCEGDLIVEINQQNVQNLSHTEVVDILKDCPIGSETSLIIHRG

LNX1_3, Q8TBB1 = biological target: LNX1_3, Q8TBB1
Sequence of LNX1_3, Q8TBB1 (Q8TBB1 500-596): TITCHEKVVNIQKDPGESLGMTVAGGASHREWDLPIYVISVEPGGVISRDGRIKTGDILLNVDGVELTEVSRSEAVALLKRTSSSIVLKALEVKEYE

GOPC, Q9HD26 = biological target: GOPC, Q9HD26
FRMPD2_2, Q68DX3 = biological target: FRMPD2_2, Q68DX3
Sequence of FRMPD2_2, Q68DX3 (Q68DX3 944-1038): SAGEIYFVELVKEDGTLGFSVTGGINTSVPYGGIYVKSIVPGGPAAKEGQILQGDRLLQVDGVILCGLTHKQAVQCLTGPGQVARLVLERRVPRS

MAGI1_2, Q96QZ7 = biological target: MAGI1_2, Q96QZ7
Sequence of MAGI1_2, Q96QZ7 (Q96QZ7 456-580): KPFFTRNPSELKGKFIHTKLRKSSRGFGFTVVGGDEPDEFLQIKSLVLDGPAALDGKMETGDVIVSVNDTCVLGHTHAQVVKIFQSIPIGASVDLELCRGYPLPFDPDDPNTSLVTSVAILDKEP

GRIP2_3, Q9C0E4 = biological target: GRIP2_3, Q9C0E4
Sequence of GRIP2_3, Q9C0E4 (Q9C0E4 238-339): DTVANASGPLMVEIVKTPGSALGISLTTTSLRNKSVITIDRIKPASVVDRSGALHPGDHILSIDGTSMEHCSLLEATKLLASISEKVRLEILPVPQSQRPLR

RHPN1, Q8TCX5 = biological target: T4, RHPN1, Q8TCX5
NHERF3_3, Q5T2W1 = biological target: T5, NHERF3_3, Q5T2W1
LIN7C, Q9NUP9 = biological target: T6, LIN7C, Q9NUP9
GORASP1, Q9BQQ3 = biological target: GORASP1, Q9BQQ3
Sequence of GORASP1, Q9BQQ3 (Q9BQQ3 1-208): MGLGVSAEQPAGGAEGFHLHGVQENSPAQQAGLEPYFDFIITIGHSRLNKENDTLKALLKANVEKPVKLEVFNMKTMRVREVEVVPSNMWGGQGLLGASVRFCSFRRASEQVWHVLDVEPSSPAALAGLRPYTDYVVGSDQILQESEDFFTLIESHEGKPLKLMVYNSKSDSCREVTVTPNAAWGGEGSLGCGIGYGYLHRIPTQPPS

Inadl_6, Q8NI35 = biological target: Inadl_6, Q8NI35
Sequence of Inadl_6, Q8NI35 (Q8NI35 1058-1167): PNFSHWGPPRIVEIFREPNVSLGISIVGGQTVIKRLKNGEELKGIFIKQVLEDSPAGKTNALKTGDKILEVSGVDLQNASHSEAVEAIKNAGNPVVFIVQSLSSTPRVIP

MAGI3_2, Q5TCQ9 = biological target: MAGI3_2, Q5TCQ9
Sequence of MAGI3_2, Q5TCQ9 (Q5TCQ9 398-503): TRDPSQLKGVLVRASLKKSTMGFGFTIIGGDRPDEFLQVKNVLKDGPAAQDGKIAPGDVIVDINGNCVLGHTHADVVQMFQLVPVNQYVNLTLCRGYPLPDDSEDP

DLG3_3, Q92796 = biological target: T7, DLG3_3, Q92796
HTRA3, P83110 = biological target: T8, HTRA3, P83110
FRMPD3, Q5JV73 = biological target: FRMPD3, Q5JV73
Sequence of FRMPD3, Q5JV73 (Q5JV73 12-100): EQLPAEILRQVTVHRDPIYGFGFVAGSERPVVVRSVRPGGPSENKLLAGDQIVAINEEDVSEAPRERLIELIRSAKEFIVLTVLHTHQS

DLG1_1, Q12959 = biological target: DLG1_1, Q12959
Inadl_1, Q8NI35 = biological target: Inadl_1, Q8NI35
Sequence of Inadl_1, Q8NI35 (Q8NI35 113-229): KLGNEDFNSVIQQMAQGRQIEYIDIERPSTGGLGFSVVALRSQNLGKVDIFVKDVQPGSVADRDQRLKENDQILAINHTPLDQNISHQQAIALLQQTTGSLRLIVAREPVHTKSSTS

Binder | pKd (Inadl_4, Q8NI35) | pKd (FRMPD2_1, Q68DX3) | pKd (LNX1_2, Q8TBB1) | pKd (NHERF4_4, Q86UT5) | pKd (Inadl_8, Q8NI35) | pKd (DLG4_3, P78352) | pKd (DLG2_2, Q15700) | pKd (SNTA1, Q13424) | pKd (PARD3_3, Q8TEW0) | pKd (LIN7B, Q9HAP6) | pKd (APBA1_2, Q02410) | pKd (MAST2, Q6P0Q8) | pKd (ARHGEF12, Q9NZN5-2) | pKd (Inadl_10, Q8NI35) | pKd (MAGI2_3, Q86UL8) | pKd (LNX1_3, Q8TBB1) | pKd (GOPC, Q9HD26) | pKd (FRMPD2_2, Q68DX3) | pKd (MAGI1_2, Q96QZ7) | pKd (GRIP2_3, Q9C0E4) | also measured
KEKASTETEC [TRPM1, Q7Z4N2] | below the threshold | below the threshold | below the threshold | below the threshold | below the threshold | 3.65 | 3.52 | 3.77 | below the threshold | 3.77 | below the threshold | 4.78 | 3.58 | below the threshold | below the threshold | below the threshold | below the threshold | below the threshold | below the threshold | below the threshold | pKd (RHPN1, Q8TCX5): below the threshold; pKd (NHERF3_3, Q5T2W1): below the threshold; pKd (LIN7C, Q9NUP9): 3.93; pKd (GORASP1, Q9BQQ3): below the threshold; pKd (Inadl_6, Q8NI35): below the threshold; pKd (MAGI3_2, Q5TCQ9): below the threshold; pKd (DLG3_3, Q92796): below the threshold; pKd (HTRA3, P83110): 3.58; pKd (FRMPD3, Q5JV73): below the threshold; pKd (DLG1_1, Q12959): 3.96; pKd (Inadl_1, Q8NI35): below the threshold
MQILSKPEFI [NPSR1, Q6W5P4] | below the threshold | below the threshold | below the threshold | below the threshold | below the threshold | 3.49 | below the threshold | below the threshold | 3.98 | 3.81 | 4.24 | below the threshold | below the threshold | below the threshold | below the threshold | below the threshold | below the threshold | below the threshold | below the threshold | below the threshold | pKd (RHPN1, Q8TCX5): below the threshold; pKd (NHERF3_3, Q5T2W1): below the threshold; pKd (LIN7C, Q9NUP9): below the threshold; pKd (GORASP1, Q9BQQ3): 4.15; pKd (Inadl_6, Q8NI35): below the threshold; pKd (MAGI3_2, Q5TCQ9): below the threshold; pKd (DLG3_3, Q92796): below the threshold; pKd (HTRA3, P83110): 4.61; pKd (FRMPD3, Q5JV73): below the threshold; pKd (DLG1_1, Q12959): below the threshold; pKd (Inadl_1, Q8NI35): below the threshold
KIEDVEITLV [FCHSD2, O94868] | below the threshold | below the threshold | 4.55 | below the threshold | 3.99 | below the threshold | 3.74 | 3.76 | 3.99 | below the threshold | 4.07 | 5.63 | 3.85 | below the threshold | 4.52 | below the threshold | 4.09 | 4.76 | below the threshold | below the threshold | pKd (RHPN1, Q8TCX5): 4.76; pKd (NHERF3_3, Q5T2W1): below the threshold; pKd (LIN7C, Q9NUP9): 4.11; pKd (GORASP1, Q9BQQ3): 3.91; pKd (Inadl_6, Q8NI35): 4.23; pKd (MAGI3_2, Q5TCQ9): 4.05; pKd (DLG3_3, Q92796): below the threshold; pKd (HTRA3, P83110): 3.71; pKd (FRMPD3, Q5JV73): below the threshold; pKd (DLG1_1, Q12959): 3.79; pKd (Inadl_1, Q8NI35): below the threshold
